Measured values: PMC11898529, “The LSmAD Domain of Ataxin-2 Modulates the Structure and RNA Binding of Its Preceding LSm Domain”

Tests used:
[1] = biological target: T1, LSm-LSmAD M2 mutant of Ataxin-2 (UniProt Q99700 242-475, S315Q;S317T); assay: SHAPE footprinting; AU-, GU-, CU-rich protected, more than with LSm; CA-rich unchanged; EMSA: 10 mM Tris pH 8.0, 25 mM KCl, 10 mM NaCl, 1 mM MgCl2, 10% glycerol, 0.5 mM DTT, 20 min, 25 C; SEC and SHAPE buffers not in material; conditions: protein: recombinant
T1 sequence (Q99700 242-475 S315Q/S317T): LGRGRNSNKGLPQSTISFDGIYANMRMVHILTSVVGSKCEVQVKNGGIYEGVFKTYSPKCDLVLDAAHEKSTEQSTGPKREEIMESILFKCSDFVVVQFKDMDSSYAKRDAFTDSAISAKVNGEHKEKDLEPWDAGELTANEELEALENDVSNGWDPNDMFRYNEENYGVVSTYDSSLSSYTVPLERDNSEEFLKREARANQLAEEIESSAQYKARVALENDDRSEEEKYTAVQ

LSm domain of Ataxin-2 [2] = biological target: T2, LSm domain of Ataxin-2 (UniProt Q99700 242-344); assay: SHAPE footprinting; AU-, GU-, CU-rich protected, less than with M2; CA-rich unchanged; EMSA: 10 mM Tris pH 8.0, 25 mM KCl, 10 mM NaCl, 1 mM MgCl2, 10% glycerol, 0.5 mM DTT, 20 min, 25 C; SEC and SHAPE buffers not in material; conditions: protein: recombinant; tags: His tag (pET-22b(+), NdeI/XhoI)
T2 sequence (Q99700 242-344): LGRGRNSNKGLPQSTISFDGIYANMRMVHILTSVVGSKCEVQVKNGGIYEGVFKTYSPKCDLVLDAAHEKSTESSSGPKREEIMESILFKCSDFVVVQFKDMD

LSm domain of Ataxin-2 [3] = biological target: T2, LSm domain of Ataxin-2; assay: SHAPE footprinting; AU- and GU-rich protected (AU more than with M2); CA-rich unchanged; EMSA: 10 mM Tris pH 8.0, 25 mM KCl, 10 mM NaCl, 1 mM MgCl2, 10% glycerol, 0.5 mM DTT, 20 min, 25 C; SEC and SHAPE buffers not in material; conditions: protein: recombinant; tags: His tag (pET-22b(+), NdeI/XhoI)
[4] = biological target: T1, LSm-LSmAD M2 mutant of Ataxin-2; assay: SHAPE footprinting; AU- and GU-rich protected (GU more than with LSm); CA-rich unchanged; EMSA: 10 mM Tris pH 8.0, 25 mM KCl, 10 mM NaCl, 1 mM MgCl2, 10% glycerol, 0.5 mM DTT, 20 min, 25 C; SEC and SHAPE buffers not in material; conditions: protein: recombinant
LSm domain of Ataxin-2 [5] = biological target: T2, LSm domain of Ataxin-2; assay: size-exclusion chromatography; EMSA: 10 mM Tris pH 8.0, 25 mM KCl, 10 mM NaCl, 1 mM MgCl2, 10% glycerol, 0.5 mM DTT, 20 min, 25 C; SEC and SHAPE buffers not in material; conditions: protein: recombinant, tags: His tag (pET-22b(+), NdeI/XhoI), single strand with flanking hairpins
LSmAD domain of Ataxin-2 = LSmAD domain of Ataxin-2 (UniProt Q99700 353-475); assay: EMSA; protein/RNA molar ratio up to 6; 1 mM MgCl2; EMSA: 10 mM Tris pH 8.0, 25 mM KCl, 10 mM NaCl, 1 mM MgCl2, 10% glycerol, 0.5 mM DTT, 20 min, 25 C; SEC and SHAPE buffers not in material; conditions: protein: recombinant, tags: His tag, single strand with flanking hairpins
Sequence of LSmAD domain of Ataxin-2 (Q99700 353-475): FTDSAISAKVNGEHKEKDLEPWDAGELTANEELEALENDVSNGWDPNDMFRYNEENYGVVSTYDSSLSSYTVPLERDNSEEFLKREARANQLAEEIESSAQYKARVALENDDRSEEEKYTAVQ

[6] = biological target: T1, LSm-LSmAD M2 mutant of Ataxin-2; assay: EMSA; fully shifted at protein/RNA molar ratio 20; moderate affinity; 1 mM MgCl2; EMSA: 10 mM Tris pH 8.0, 25 mM KCl, 10 mM NaCl, 1 mM MgCl2, 10% glycerol, 0.5 mM DTT, 20 min, 25 C; SEC and SHAPE buffers not in material; conditions: protein: recombinant; single strand with flanking hairpins
LSm domain of Ataxin-2 [7] = biological target: T2, LSm domain of Ataxin-2; assay: SHAPE footprinting; GU-, AU-, CU-rich protected (CU most); CA-rich unchanged; EMSA: 10 mM Tris pH 8.0, 25 mM KCl, 10 mM NaCl, 1 mM MgCl2, 10% glycerol, 0.5 mM DTT, 20 min, 25 C; SEC and SHAPE buffers not in material; conditions: protein: recombinant; tags: His tag (pET-22b(+), NdeI/XhoI)
[8] = biological target: T1, LSm-LSmAD M2 mutant of Ataxin-2; assay: as above; conditions: protein: recombinant

B1: RE2 (structured_RNA)
RNA: GGCCUUCGGGCCAAAUUUAUUUAUUUAUUUAGCGAGAAGUUGUUUGUUUGUGUUUGACGUCUGUGUGGACGUCACACACAGGAUGCAUCGGACCUUUUCCCCUUUUCCCUUUUCGAUCCGGUUCGCCGGAUCCAAAUCGGGCUUCGGUCCGGUUC
- binding result [1]: binds
- binding result (LSm domain of Ataxin-2 [2]): binds

B2: RE1 (structured_RNA)
RNA: GGCCUUCGGGCCAAAUUUAUUUAUUUAUUUAUUUAGCUGACGAUCCACACACACAGGAAUCGACUCUGUUUGUUUGUGUUUGUUUGUACUGAAUUGGCACUUUUCCCCUUUUCCCUUUCUGGACUGGCAUCGAUCCGGUUCGCCGGAUCCAAAUCGGGCUUCGGUCCGGUUC
- binding result (LSm domain of Ataxin-2 [3]): binds
- binding result [4]: binds

B3: AU-rich RNA (structured_RNA)
RNA: GGCCUUCGGGCCAAAUUUUUAUUUUUAUUUUUAUUUUUAUUUUUUCGAUCCGGUUCGCCGGAUCCAAAUCGGGCUUCGGUCCGGUUC
- binding result (LSm domain of Ataxin-2 [5]): binds
- binding result (LSmAD domain of Ataxin-2): no binding
- binding result [6]: binds

B4: AC-rich RNA (structured_RNA)
RNA: GGCCUUCGGGCCAAACCCCCACCCCCACCCCCACCCCCACCCCCUCGAUCCGGUUCGCCGGAUCCAAAUCGGGCUUCGGUCCGGUUC
- binding result (LSm domain of Ataxin-2 [5]; two conformers in gel): no binding
- binding result (LSmAD domain of Ataxin-2; two conformers in gel): no binding

B5: RE5 (structured_RNA)
RNA: GGCCUUCGGGCCAAACCGUACACACACACAUGGCUAGACGGUAUGUUUGUUUGUUGUUUGUUUGUUGUUUGUUUGUGUUUGACGUAGGAAUUUAAUUUAAUUUAAUUUAAUUUAAUUUAAUUUACAGGCUACGUAGGCCAGGACCCCUCUUUUCUCCCCAGGACCCCUCUUUUCUCCCCAUUCACCCUCCCUUCUCCAGAGCGAUUCGAUCCGGUUCGCCGGAUCCAAAUCGGGCUUCGGUCCGGUUC
- binding result (LSm domain of Ataxin-2 [7]): binds
- binding result [8]: binds
